3 sequences from article PMC5826061 can be followed below.

The target of the series is T1, GlnR (Streptomyces coelicolor) (UniProt Q05943).
T1 sequence: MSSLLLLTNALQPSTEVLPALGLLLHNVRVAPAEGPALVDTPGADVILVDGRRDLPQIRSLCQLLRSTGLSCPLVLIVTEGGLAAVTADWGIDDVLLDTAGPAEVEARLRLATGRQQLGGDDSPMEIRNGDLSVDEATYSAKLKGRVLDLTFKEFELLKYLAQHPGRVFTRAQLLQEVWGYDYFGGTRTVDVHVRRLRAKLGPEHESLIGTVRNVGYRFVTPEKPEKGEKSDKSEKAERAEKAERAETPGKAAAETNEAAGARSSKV
Briefly: DNase I footprinting. Conditions: 50 mM Tris-HCl pH 8.0, 100 mM KCl, 2.5 mM MgCl2, 1 mM DTT, 10% glycerol; EMSA in 20 ul with 100 ng/ul sheared salmon sperm DNA, room temperature, 20 min …. On the technique in general: A gel shift assay detects complexes by their altered migration in electrophoresis.

For the sequence “GTAAAACGACGGCCAGTCCATGCCAGGTCATTCGGAGGCCGCCGCGGCCGGCTTGCGTTCCGGGCCGGACGGCCCGGGCACGACGACGACCGGCCCCGGCCGTTCACCCACGCGTAACACGCACCGTGCCTTCGTCACGGCGGCGAAACAACGAGAAATCTCCACCGAAACCGCGCTGCGTCAATGTCGTGGCGCATAACCGGCCCACCCCTCACCGCCCGCCCGCCAGGCTTCGCCCCCACGGGGCCGCACCAACGACGAGGAGACGCCGATGTCTAGATTTTT (double strand) [amtB promoter a2m footprint probe]”, the binding entry is listed as “binds”. For “GTAAAACGACGGCCAGTCCATGCCAGGTCATTCGGAGGCCGCCGCGGCCGGCTTGCGTTCCGGGCCGGACGGCCCGGGCACGACGACGACCGGCCCCGGCCGTTCACCCACGCGTAACACGCACCGTGCCTTCGTCACGGCGGCGAAACAACGAGGGGCTTCCACCGAAACCGCGCTGCGTCAATGTCGTGGCGCATAACCGGCCCACCCCTCACCGCCCGCCCGCCAGGCTTCGCCCCCACGGGGCCGCACCAACGACGAGGAGACGCCGATGTCTAGATTTTT (double strand) [amtB promoter WT footprint probe]”, the binding entry is reported as “binds”.

For the sequence “GTAAAACGACGGCCAGTCCATGCCAGGTCATTCGGAGGCCGCCGCGGCCGGCTTGCGTTCCGGGCCGGACGGCCCGGGCACGACGACGACCGGCCCCGGCCGTTCACCCACGCGTAACACGCAGGGGCTTCCACCGAAACCGCGCTGCGTCAATGTCGTGGCGCATAACCGGCCCACCCCTCACCGCCCGCCCGCCAGGCTTCGCCCCCACGGGGCCGCACCAACGACGAGGAGACGCCGATGTCTAGATTTTT (double strand) [amtB promoter m3 footprint probe]”, the binding entry is reported as “binds”.
